We go through 167 variants from the RNAGym collection of RNA variant scans (doi:10.7554/elife.90254).

B1: LINE1-mini (parent)
chain: GGCAGAGCUCAACACAGCGUGGCAAAGUGGCUGUGGCUAGACUGCC

The data set covers variants of B1. In words: self-cleavage, relative activity (ratio to wild type); higher = more cleavage; in vitro, sequencing; the parent is a self-cleaving ribozyme.
For G29C G44C, the self-cleavage is 0.29.
In the case of G29A G40U, the self-cleavage worked out at 0.12.
In the case of G29A G40C it was 0.08; in that of G29A G40A, 0.11; in that of U28G, 0.64.
In the case of G30C C42G it was 0.04; in that of G30C C42A, 0.12.
In the case of G30C C42U it was 0.18.
Consider G29A C46A, for which the self-cleavage turned out to be 0.89.
Turning to G29A C46G, the self-cleavage was 0.74.
In the case of G29A C46U, the self-cleavage is 0.82.
Under G30A C45G stands 0.4; under G30A C45U, 1.57; under G30A C45A, 0.71.
In the case of G29U U32G it was 0.27; in that of G29U U32A, 0.34; in that of G29U U32C, 0.16.
With G30C G36U, the self-cleavage was 0.11.
On to G30C G36C, for which the self-cleavage stood at 0.06.
In the case of G30C G36A it was 0.1; in that of G30C U32C, 0.09.
Under G30C U32A stands 0.26.
Under G30C U32G stands 0.3.
Turning to U28G G29U, the self-cleavage was 0.61.
In the case of U28G G29A it was 0.34; in that of U28G G29C, 0.53; in that of G30C G35A, 0.09.
Under G30C G35C stands 0.09; under G30C G35U, 0.19; under G29U G40A, 0.15.
In the case of G29U G40C it was 0.14.
With G29U G40U, the self-cleavage stood at 0.18.
Under G29C U38A stands 0.08; under G29C U38G, 0.02; under G29C U38C, 0.11.
In the case of U28G A41G it was 0.27.
On to U28G A41U, for which the self-cleavage amounted to 0.52.
In the case of U28G A41C it was 0.04.
In the case of G30A G35A it was 0.12; in that of G30A G35U, 0.09; in that of G30A G35C, 0.08.
Regarding G29A A39G, the self-cleavage is 0.07.
In the case of G29A A39U it was 0.93.
Under G29A A39C stands 0.21.
Regarding U28C U43A, the self-cleavage was 0.08.
In the case of U28C U43C it was 0.12; in that of G29U G33A, 0.1; in that of G29U G33C, 0.06.
Under G29U G33U stands 0.12.
For the variant U28G C37U, the self-cleavage amounted to 0.03.
In the case of U28G C37A it was 0.03; in that of U28G C37G, 0.03; in that of G29A U32C, 0.18.
In the case of G29A U32G it was 0.46; in that of G29A U32A, 0.4.
Under G30C C37U stands 0.1.
Consider G30C C37A, for which the self-cleavage turned out to be 0.07.
In the case of G30C C37G it was 0.07.
In the case of G30C G33U it was 0.07.
Under G30C G33C stands 0.03.
Regarding G30C G33A, the self-cleavage stood at 0.06.
In the case of U28C G33A it was 0.14.
Under U28C G33U stands 0.08; under U28C G33C, 0.06.
As for G30C C45A, the self-cleavage was 0.33.
Under G30C C45G stands 0.21.
In the case of G30C C45U it was 0.88; in that of G29C A39G, 0.03.
Under G29C A39C stands 0.06; under G29C A39U, 0.15; under U28C U38G, 0.01.
For the variant U28C U38A, the self-cleavage came out at 0.1.
Under G29U C37G stands 0.04.
Under G29U C37U stands 0.05; under G29U C37A, 0.13.
Under G29U G35C stands 0.08; under G29U G35U, 0.14; under G29U G35A, 0.32.
G29C C31A: the self-cleavage worked out at 1.34.
G29C C31U: the self-cleavage was determined as 0.93.
In the case of G29C C31G it was 0.34.
In the case of G30A A39U it was 1.69; in that of G30A A39G, 0.11.
For the variant G30A A39C, the self-cleavage came out at 0.4.
Under U28G C42U stands 0.31; under U28G C42A, 0.18.
Under U28G C42G stands 0.03.
Under G29C G40U stands 0.07; under G29C G40A, 0.07.
Turning to G29C G40C, the self-cleavage was 0.05.
Under U28G A39U stands 0.56; under U28G A39G, 0.07.
In the case of U28G A39C it was 0.05; in that of G30C U43A, 0.06.
As for G30C U43C, the self-cleavage was 0.25.
Under G29U U38C stands 0.47; under G29U U38A, 0.4; under G29U U38G, 0.02.
In the case of G29U C31A it was 0.15; in that of G29U C31U, 0.19.
In the case of G29U C31G it was 0.13; in that of G29A G30A, 2.29; in that of G29A G30C, 1.52.
Regarding G29A G30U, the self-cleavage worked out at 1.41.
Under U28C G44U stands 0.34.
In the case of U28C G44A it was 0.67; in that of U28C G44C, 0.27.
U28C G36C: the self-cleavage came out at 0.28.
In the case of U28C G36A it was 0.1.
With U28C G36U, the self-cleavage was determined as 0.11.
Under G30C U38C stands 0.49.
For the variant G30C U38G, the self-cleavage stood at 0.03.
In the case of G30C U38A it was 0.75; in that of U28C G40A, 0.09; in that of U28C G40C, 0.2.
In the case of U28C G40U it was 0.17.
In the case of G29A A41G it was 0.32; in that of G29A A41C, 0.05.
For the variant G29A A41U, the self-cleavage amounted to 0.74.
Under G29C C45G stands 0.19; under G29C C45U, 0.67; under G29C C45A, 0.45.
G30A G36A: the self-cleavage came out at 0.43.
As for G30A G36C, the self-cleavage amounted to 0.07.
In the case of G30A G36U it was 0.1; in that of U28G G36C, 0.05; in that of U28G G36A, 0.12.
With U28G G36U, the self-cleavage came out at 0.12.
Under G30A A41U stands 0.6; under G30A A41C, 0.07.
As for G30A A41G, the self-cleavage turned out to be 0.27.
In the case of G29C G30U it was 0.67; in that of G29C G30C, 0.23; in that of G29C G30A, 1.73.
In the case of G29A C37G it was 0.02.
In the case of G29A C37U it was 0.05; in that of G29A C37A, 0.1; in that of U28G G40A, 0.12.
On to U28G G40C, for which the self-cleavage is 0.07.
In the case of U28G G40U it was 0.09; in that of G30A U34A, 0.05.
Take G30A U34C: the self-cleavage is 0.12.
G30A U34G: the self-cleavage was determined as 0.11.
On to G29A G33C, for which the self-cleavage stood at 0.06.
Under G29A G33U stands 0.12.
Regarding G29A G33A, the self-cleavage was 0.12.
In the case of U28C G35A it was 0.21; in that of U28C G35C, 0.13; in that of U28C G35U, 0.09.
In the case of G30A G33U it was 0.08.
In the case of G30A G33C it was 0.07.
Turning to G30A G33A, the self-cleavage is 0.1.
In the case of G30A U32A it was 0.13.
Under G30A U32G stands 0.41.
In the case of G30A U32C it was 0.21.
Consider G29C G33A, for which the self-cleavage amounted to 0.12.
As for G29C G33U, the self-cleavage came out at 0.36.
Under G29C G33C stands 0.1; under G29U G36A, 0.17; under G29U G36C, 0.1.
Under G29U G36U stands 0.05; under G30C G44C, 0.27.
As to G30C G44A, the self-cleavage was determined as 0.2.
Under G30C G44U stands 0.09; under G30C U34G, 0.1; under G30C U34C, 0.12.
In the case of G30C U34A it was 0.12.
